From US7368293 (ROCKEFELLER UNIVERSITY, dated 2008) come the findings set out here.

The data set deals with the molecule itself. The experiment in a line: in vitro translation, gel mobility-shift with 32P APF-1 probe; inferred from heterodimer bands and absence of monomer complexes. The procedure:
Since amino acids in the ligand binding domain of the estrogen receptor are known to be necessary for receptor dimerization and subsequent DNA binding (Kumar & Chambon, 1988; Fawell et al., 1990), we determined whether HNF-4 binds to its recognition site as a monomer or as a dimer. The full length cDNA (Xho I) was co-translated in vitro with either of the two truncated products that bind DNA (PflM I and Hga I) and the products were tested in the mobility-shift assay. When the full length and truncated transcripts were translated together, complexes of intermediate mobility were produced with both the APF-1 probe (lanes 3 and 5, FIG. 5D) and the −151 to −130 TTR probe (not shown).

B1: HNF-4 (hepatocyte nuclear factor 4), full length protein translated in vitro from pf7 cDNA (Xho I-cut template) (receptor)
chain: MDMADYSAALDPAYTTLEFENVQVLTMGNDTSPSEGANLNSSNSLGVSALCAICGDRATGKHYGASSCDGCKGFFRRSVRKNHMYSCRFSRQCVVDKDKRNQCRYCRLKKCFRAGMKKEAVQNERDRISTRRSSYEDISLPSINALLQAEVLSQQITSPISGINGDIRAKRIASITDVCESMKEQLLVLVEWAKYIPAFCELLLDDQVALLRAHAGEHLLLGATKRSMVFKDVLLLGNDYIVPRHCPELAEMSRVSIRILDELVLPFQELQIDDNEYACLKAIIFFDPDAKGLSDPGKIKRLRSQVQVSLEDYINDRQYDSRGRFGELLLLLPTLQSITWQMIEQIQFIKLFGMAKIDNLLQEMLLGGSASDAPHAHHPLHPHLMQEHMGTNVIVANTMPSHLTNGQMSTPETPQPSPPSGSGSESYKLLPGAITTIVKPPSAIPQPTITKQEAI
notes: Translated in rabbit reticulocyte lysate from T3/T7 transcripts of pf7 (rat liver cDNA); also called full length cDNA (Xho I); in vitro synthesized HNF-4
As to B1, the binding result is recorded as “binds”.
